Like-named read-outs stand apart in the source and are kept apart here. One block for each binder: values may come before it.
Tests used:
[1] = target: T1, human A-beta(1-40) peptide, monomeric (BAM) (human, biotin at the C-terminus in capture ELISA, SPR and TR-FRET; not biotinylated where coated directly (Example 7)); assay: cell-based or functional assay
[2] = target: T1, human A-beta(1-40) peptide, monomeric …; assay: ELISA, format not stated
soluble APP-alpha = target: T2, soluble APP-alpha (UniProt P05067-4 18-612, limits assumed, biotinylated where used as labelled partner); assay: TR-FRET: competition with labelled ABII320 for biotinylated sAPPalpha; non-labeled ABII035 as competitor; biotinylated sAPPalpha
T2 construct: bought; also called sAPPalpha
Method: Two independent experiments are performed applying a dilution series of the competitor compounds.

[3] = target: T1, human A-beta(1-40) peptide, monomeric …; assay: ELISA, peptide coated at 2 µg/ml, anti-myc detection
[4] = target: T3, mouse A-beta(1-40) peptide (mouse); assay: as above
T3 construct: Bachem peptide coated directly; also called rodent A-beta(1-40)
T3 peptide: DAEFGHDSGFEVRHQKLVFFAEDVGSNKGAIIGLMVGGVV

[5] = target: T1, human A-beta(1-40) peptide, monomeric …; assay: TR-FRET competition; labelled competitor not given
[6] = target: T1, human A-beta(1-40) peptide, monomeric …; assay: TR-FRET competition, mean IC50
[7] = target: T1, human A-beta(1-40) peptide, monomeric …; assay: ABII002 TR-FRET competition assay
[8] = target: T3, mouse A-beta(1-40) peptide; assay: ELISA EC50
[9] = target: T4, human A-beta peptide (residues 1-24) (human); assay: crystal structure
T4 construct: used for co-crystallisation; also called A-beta(1-24)
Method: The complex is concentrated by diafiltration to a concentration of 4 mg/ml. Crystallization trials are set up as sitting drop vapour diffusion experiments by mixing 200 nl of protein with 200 nl of reservoir solution against a reservoir volume of 100 μl. […] Data are collected at the beamline 6SA of the swiss light source at the Paul-Scherrer Institute in Villigen, Switzerland.

[10] = target: T5, aggregated A-beta(1-40) peptide (BAA) (human); assay: BAA ELISA
T5 construct: also called A-beta peptide aggregates

[11] = target: T1, human A-beta(1-40) peptide, monomeric …; assay: BAM ELISA
[12] = target: T1, human A-beta(1-40) peptide, monomeric …; assay: TR-FRET competition, labelled ABII60A10; extrapolated curve
[13] = target: T1, human A-beta(1-40) peptide, monomeric …; assay: BAM ELISA; remark: listed apart in the source
[14] = target: T1, human A-beta(1-40) peptide, monomeric …; assay: TR-FRET competition; extrapolated curve
[15] = target: T5, aggregated A-beta(1-40) peptide (BAA); assay: BAA ELISA; remark: listed apart in the source
[16] = target: T1, human A-beta(1-40) peptide, monomeric …; assay: 42D4 TR-FRET assay (labelled ABII42D4)
[17] = target: T1, human A-beta(1-40) peptide, monomeric …; assay: ABII42D4 TR-FRET assay
[18] = target: T1, human A-beta(1-40) peptide, monomeric …; assay: 60A10 TR-FRET assay (labelled ABII60A10)
[19] = target: T1, human A-beta(1-40) peptide, monomeric …; assay: SPR on captured biotinylated A-beta(1-40)
[20] = target: T1, human A-beta(1-40) peptide, monomeric …; assay: SPR, captured C-terminally biotinylated A-beta(1-40)
[21] = target: T1, human A-beta(1-40) peptide, monomeric …; assay: ABII050 TR-FRET competition assay
[22] = target: T1, human A-beta(1-40) peptide, monomeric …; assay: TR-FRET competition, labelled ABII60A10
[23] = target: T1, human A-beta(1-40) peptide, monomeric …; assay: TR-FRET competition
[24] = target: T6, His.Xa.Abeta1-28.GS.p38 fusion protein; assay: size exclusion chromatography, Experion quantification (0.87 µM and 0.86 µM)
T6 construct: His-tag, factor Xa site, A-beta(1-28), GS linker, murine p38 alpha; the SEC experiment names it only A-beta(1-28)-p38 fusion protein; also called A-beta(1-28)-p38 fusion protein; A-beta-p38 fusion protein
T6 chain: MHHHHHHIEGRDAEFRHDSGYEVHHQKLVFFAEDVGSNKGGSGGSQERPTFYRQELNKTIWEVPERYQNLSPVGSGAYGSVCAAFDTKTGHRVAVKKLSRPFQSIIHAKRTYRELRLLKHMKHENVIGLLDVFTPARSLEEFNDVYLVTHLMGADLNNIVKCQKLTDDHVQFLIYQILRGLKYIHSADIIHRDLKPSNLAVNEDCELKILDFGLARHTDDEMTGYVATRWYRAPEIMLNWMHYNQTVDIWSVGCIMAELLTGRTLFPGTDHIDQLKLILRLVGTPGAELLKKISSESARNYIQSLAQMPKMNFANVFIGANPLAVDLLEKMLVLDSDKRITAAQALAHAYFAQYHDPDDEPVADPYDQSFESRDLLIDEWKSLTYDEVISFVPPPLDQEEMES
Method: Determination of the binding mode using size exclusion chromatography: Size exclusion chromatography (SEC) separates molecules according to differences in size as they pass through a gel filtration medium packed in a column. The binding mode of biparatopic VHH constructs to their target can be identified by analysing the protein complex after incubating a 1:2 molar ratio of the respective VHH construct and the target protein. Therefore the mixture will be separated by SEC and the contents of the resulting peaks is analyzed by protein gel electrophoresis. […] The gel filtration produced two peaks which are further analyzed by SDS-PAGE using the automated electrophoresis station Experion (Bio-Rad, USA) and the appropriate chip (Pro260 Chip, Bio-Rad, USA).

[25] = target: T7, pGlu-A-beta(1-28), C-terminally biotinylated (human, pyroglutamate formed from the glutamate at position 3 (N-terminus); biotin at the C-terminus); assay: SPR on captured C-terminally biotinylated pGlu-A-beta(1-28), 1:1 model
T7 construct: printed as pGlu-A-beta(1-28), while the text says that the first two N-terminal residues are missing; range 3-28 is my reading; also called pyroglutamyl-Abeta
From the text: Association and dissociation curves can be fitted using a 1:1 interaction model and an accurate KD value can be determined.

A-beta(1-28) peptide = target: T8, A-beta(1-28) peptide (human); assay: KinExA, A-beta(1-28) in solution; PEGylated ABII322
T8 construct: Anaspec peptide, solution antigen in KinExA
Method: The KinExA experiments are conducted with a KinExA 3000 and the KinExA Pro software (Sapidyne Instruments Inc., USA) at room temperature (ca. 21° C.). PBS with 0.02% NaN₃ is used as running buffer. For all experiments, antigen is serially diluted into PBS with 0.1% BSA and 0.02% NaN₃ having a constant VHH concentration. The mixtures of antigen and VHH are incubated for 24 h at room temperature prior to measurement. The flow rate of the samples and the labeling antibody for all experiments is 0.25 ml/min.
This antibody is used at a volume of 500 μl and a concentration of 0.5 μg/ml in PBS with 0.1% BSA and 0.02% NaN₃.
The equilibrium titration data are fit to a 1:1 binding model using KinExA Pro software Version 1.0.3 (Sapidyne Instruments Inc., USA). […] The sample volume is 5 ml each. […] The sample volume is 11 ml each.

T2 sequence (P05067 other isoform, or with tags, fused parts or gaps limits assumed): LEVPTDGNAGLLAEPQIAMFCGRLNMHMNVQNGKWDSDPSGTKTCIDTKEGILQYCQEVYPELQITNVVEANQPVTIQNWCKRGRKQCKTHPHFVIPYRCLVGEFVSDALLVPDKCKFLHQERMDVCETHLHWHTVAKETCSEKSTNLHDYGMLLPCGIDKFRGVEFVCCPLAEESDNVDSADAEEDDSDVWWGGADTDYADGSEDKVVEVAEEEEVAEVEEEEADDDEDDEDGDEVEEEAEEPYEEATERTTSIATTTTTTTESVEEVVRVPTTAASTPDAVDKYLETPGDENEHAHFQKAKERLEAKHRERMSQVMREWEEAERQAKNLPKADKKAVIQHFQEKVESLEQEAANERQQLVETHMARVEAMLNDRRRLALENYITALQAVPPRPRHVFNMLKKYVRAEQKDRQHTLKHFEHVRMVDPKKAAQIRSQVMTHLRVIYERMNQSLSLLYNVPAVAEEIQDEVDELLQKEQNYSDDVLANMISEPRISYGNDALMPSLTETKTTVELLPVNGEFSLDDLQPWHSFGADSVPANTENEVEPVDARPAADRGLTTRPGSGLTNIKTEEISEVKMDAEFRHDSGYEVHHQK

B1: ABII035 (VHH)
VHH: EVQLLESGGGLVQPGGSLRLSCVHSGPTFRTDTMGWFRQAPGKGREFVAAVTWNSGRINYADSVKGRFTISRDNSKNTAYLQMNSLRPEDTAVYYCAAHRFVVGGNRVEDWRYWGQGTLVTVSS
notes: humanized variant of ABII002
Aggregation inhibition (% inhibition at 26 µM) [1]: 54%
fold difference of EC50 against the 2D2 and 2G6 VHHs [2]: > 50 fold
IC50 (soluble APP-alpha): 25.6 nM
EC50 [3]: 2.5 nM
EC50 [4]: 5.7 nM
IC50 [5]: 4 nM
IC50 [6]: 4 nM
IC50 [7]: 3.5 nM
fold difference mouse against human A-beta [8]: 2.2 fold
binding result [9]: binds

B3: ABII42D4-9GS-ABII42D4 (designed binder)
chain: EVQLVESGGGLVLAGGSLRLSCVHSGPTFSTDTMGWFRQAPGKEREFVAAVTWNSGRTNYADSVKGRFTVSRDNTRNAAYLQMSGLKDEDTAVYYCTAHRLVVGGTSVGDWRYWGQGTQVTVSSGGGGSGGGGEVQLVESGGGLVLAGGSLRLSCVHSGPTFSTDTMGWFRQAPGKEREFVAAVTWNSGRTNYADSVKGRFTVSRDNTRNAAYLQMSGLKDEDTAVYYCTAHRLVVGGTSVGDWRYWGQGTQVTVSS
notes: VHH dimer with two identical domains; also called bivalent ABII42D4
IC50 [16]: 16 nM
fold improved IC50 against monovalent ABII42D4 [17]: 3.2 fold
IC50 [18]: > 1000 nM

B5: 60A10-27GS-42D4-Alb (designed binder)
chain: EVQLVESGGGLVQAGGSLRLSCAASGRTFNNYNMGWFRQAPGKEREFVAAVSRSGVSTYYADSVKGRFTISRDNAKNAVYLQMNSLKPEDTAIYYCGAAYRGTAINVRRSYDSWGQGTQVTVSSGGGSGGGGSGGGGSGGGGSGGGGSGGGEVQLVESGGGLVLAGGSLRLSCVHSGPTFSTDTMGWFRQAPGKEREFVAAVTWNSGRTNYADSVKGRFTVSRDNTRNAAYLQMSGLKDEDTAVYYCTAHRLVVGGTSVGDWRYWGQGTQVTVSS
notes: calculated molecular weight 95 kDa; also called biparatopic VHH fused to human serum albumin; not shown: human serum albumin, fused C-terminally
ratio of A-beta(1-28)-p38 to 60A10-27GS-42D4-Alb in the complex [24]: ~1

More lines, now with the values ahead:

Aggregation inhibition (% inhibition at 26 µM) [1]: 69%
EC50 [10]: 4.7 nM
EC50 [11]: 15.8 nM
IC50 [12]: 404 nM
EC50 [13]: 15.8 nM
IC50 [14]: 404 nM
EC50 [15]: 4.7 nM
B2: reference VHH 2D2 (VHH)
VHH: AVQLVDSGGGLVQAGGSLRLSCAVSGGTFSSIGMGWFRQAPGKEREFVGAISRSGDSTYYADSVKGRFTISRDGAKNTVYLQMNSLKDEDTAVYYCAGRPAGTAINIRRSYNYWGQGTQVTVSS
notes: from WO2006/40153, made and purified like the other VHHs

IC50 [16]: > 1000 nM
Aggregation inhibition (% inhibition at 26 µM) [1]: 82%
EC50 [10]: 1.8 nM
koff [19]: 4e-05 s⁻¹
EC50 [11]: 1.8 nM
Kd [20]: 0.3 nM
EC50 [13]: 1.8 nM
IC50 [21]: 0.52 nM
IC50 [22]: 0.52 nM
EC50 [15]: 1.8 nM
IC50 [18]: 2.3 nM
IC50 [23]: 0.52 nM
B4: Fab fragment of monoclonal antibody m266 (Fab, V domains shown)
VH: EVKLVESGGGLVQPGGSLKLSCAVSGFTFSRYSMSWVRQTPEKRLELVAQINSVGNSTYYPDTVKGRFTISRDNAEYTLSLQMSGLRSDDTATYYCASGDYWGQGTTLTVSS
VL: DVVMTQTPLSLPVSLGDQASISCRSSQSLIYSDGNAYLHWFLQKPGQSPKLLIYKVSNRFSGVPDRFSGSGSGTDFTLKISRVETEDLGVYFCSQSTHVPWTFGGGTKLEIK
notes: also called Fab266; m266Fab

Kd [25]: 1 nM
Kd (A-beta(1-28) peptide): 0.0006 nM
IC50 [21]: 0.17 nM
IC50 [7]: 0.14 nM
B6: ABII322-PEG40 (designed binder)
chain: VQLLESGGGLVQPGGSLRLSCAASGRTFNNYNMGWFRQAPGKGREFVAAVSRSGVSTYYADSVKGRFTISRDNSKNTVYLQMNSLRPEDTAVYYCAAAYRGTAINVRRSYSSWGQGTLVTVSSGGGSGGGGSGGGGCGGGGSGGGGSGGGEVQLLESGGGLVQPGGSLRLSCVHSGPTFRTDTMGWFRQAPGKGREFVAAVTWNSGRINYADSVKGRFTISRDNSKNTAYLQMNSLRPEDTAVYYCAAHRFVVGGNRVEDWRYWGQGTLVTVSS
modifications: PEG40 on the Cys at position 14 of the 27GS linker
notes: 059-27GSC-035; also called PEGylated ABII322 VHH construct; biparatopic PEGylated VHH ABII322
